Tests used:
[1] = substrate: NC(=O)C1=CN([C@@H]2O[C@H](COP(=O)(O)OP(=O)(O)OC[C@H]3O[C@@H](n4cnc5c(N)ncnc54)[C@H](OP(=O)(O)O)[C@@H]3O)[C@@H](O)[C@H]2O)C=CC1; test: 2,5-DKG reductase kinetic / substrate specificity assay with purified enzyme; assay type: biochemical, Corynebacterium sp. ATCC 31090; details: other: cofactor NADPH, 150 mM sodium phosphate buffer, pH 6.4, 25° C.
Text: (§1) The following assay conditions were used to determine kinetic parameters: […]

[2] = substrate: O=C(O)C(=O)[C@@H](O)[C@H](O)C(=O)CO; test: as above; assay type: biochemical, Corynebacterium sp. ATCC 31090; details: other: substrate 2,5-DKG, 150 mM sodium phosphate buffer, pH 6.4, 25° C.
Text: as §1

B1: 2,5-DKG reductase (Corynebacterium sp. ATCC 31090) (protein)
chain: MTVPSIVLNDGNSIPQLGYGVFKVPPADTQRAVEEALEVGYRHIDTAAIYGNEEGVGAAIAASGIARDDLFITTKLWNDRHDGDEPAAAIAESLAKLALDQVDLYLVHWPTPAADNYVHAWEKMIELRAAGLTRSIGVSNHLVPHLERIVAATGVVPAVNQIELHPAYQQREITDWAAAHDVKIESWGPLGQGKYDLFGAEPVTAAAAAHGKTPAQAVLRWHLQKGFVVFPKSVRRERLEENLDVFDFDLTDTEIAAIDAMDPGDGSGRVSAHPDEVD
notes: made in house; host or cells: Corynebacterium sp; ATCC 31090 (natural producer, native enzyme purified from cell paste, not recombinant)
Km [1]: 0.0337 mM | Km [2]: 15.5 mM

— US4757012A, “Ascorbic acid intermediates and process enzymes” (Genentech, Inc., priority 1984, dated 1988)
